From article PMC5816668, “Insights into the inhibitory mechanisms of NADH on the αγ heterodimer of human NAD-dependent isocitrate dehydrogenase” (Scientific Reports, 2018)

Substrate: NC(=O)c1ccc[n+]([C@@H]2O[C@H](COP(=O)(O)OP(=O)(O)OC[C@H]3O[C@@H](n4cnc5c(N)ncnc54)[C@H](O)[C@@H]3O)[C@@H](O)[C@H]2O)c1
Assay: purified protein
Type: biochemical, Homo sapiens
Details: 33 mM Tris-acetate pH 7.4, 2 mM Mn2+, 20 mM DL-isocitrate, 25 °C, no NADH, Michaelis-Menten fit, varied: cofactor

B1: αγ heterodimer of human NAD-IDH (Homo sapiens) (protein)
chain 1: TGGVQTVTLIPGDGIGPEISAAVMKIFDAAKAPIQWEERNVTAIQGPGGKWMIPSEAKESMDKNKMGLKGPLKTPIAAGHPSMNLLLRKTFDLYANVRPCVSIEGYKTPYTDVNIVTIRENTEGEYSGIEHVIVDGVVQSIKLITEGASKRIAEFAFEYARNNHRSNVTAVHKANIMRMSDGLFLQKCREVAESCKDIKFNEMYLDTVCLNMVQDPSQFDVLVMPNLYGDILSDLCAGLIGGLGVTPSGNIGANGVAIFESVHGTAPDIAGKDMANPTALLLSAVMMLRHMGLFDHAARIEAACFATIKDGKSLTKDLGGNAKCSDFTEEICRRVKDLD
chain 2: FSEQTIPPSAKYGGRHTVTMIPGDGIGPELMLHVKSVFRHACVPVDFEEVHVSSNADEEDIRNAIMAIRRNRVALKGNIETNHNLPPSHKSRNNILRTSLDLYANVIHCKSLPGVVTRHKDIDILIVRENTEGEYSSLEHESVAGVVESLKIITKAKSLRIAEYAFKLAQESGRKKVTAVHKANIMKLGDGLFLQCCREVAARYPQITFENMIVDNTTMQLVSRPQQFDVMVMPNLYGNIVNNVCAGLVGGPGLVAGANYGHVYAVFETATRNTGKSIANKNIANPTATLLASCMMLDHLKLHSYATSIRKAVLASMDNENMHTPDIGGQGTTSEAIQDVIRHIRVINGRAVEA
notes: E. coli BL21(DE3) Codon-Plus co-expression from pQlinkN-α-γ-tev-His6; C-terminal His6 of gamma cut with TEV protease; alpha 37 kDa, gamma 39 kDa; heterodimer
B1 gave a K0.5 of 0.267 ± 0.002 mM.
